Legend:
Assay in all cases: enzyme inhibition, pNA substrate
[1] = target: T1, CathepsinG, from human neutrophils (human, UniProt P08311 21-244)
T1 construct: purified natural enzyme, bought
T1 sequence (looked up): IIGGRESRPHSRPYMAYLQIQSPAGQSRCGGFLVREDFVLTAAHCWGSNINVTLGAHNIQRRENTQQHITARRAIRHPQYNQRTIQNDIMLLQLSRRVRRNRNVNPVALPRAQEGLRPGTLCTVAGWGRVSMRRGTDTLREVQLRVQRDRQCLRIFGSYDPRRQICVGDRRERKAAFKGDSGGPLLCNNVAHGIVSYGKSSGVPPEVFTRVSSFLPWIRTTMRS

[2] = target: T2, Urokinase from human urine (human, UniProt P00749 21-431, limits assumed)
T2 construct: purified natural enzyme, bought

[3] = target: T3, Chymotrypsin, from human pancreas (human, UniProt P17538 19-263)
T3 construct: purified natural enzyme, bought

[4] = target: T4, Chymase, from human skin (human, UniProt P23946 22-247)
T4 construct: purified natural enzyme, bought
T4 sequence (looked up): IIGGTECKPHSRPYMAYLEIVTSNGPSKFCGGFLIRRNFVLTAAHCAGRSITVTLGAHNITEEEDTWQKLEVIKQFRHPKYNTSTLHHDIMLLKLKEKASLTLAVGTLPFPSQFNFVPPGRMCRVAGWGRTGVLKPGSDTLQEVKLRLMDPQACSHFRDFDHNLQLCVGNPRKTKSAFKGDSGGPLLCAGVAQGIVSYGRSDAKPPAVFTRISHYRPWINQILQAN

[5] = target: T5, Coagulation Factor Xa, from uman plasma (human, UniProt P00742 41-179; P00742 235-488, limits assumed)
T5 construct: purified natural enzyme, bought; also called FXa

[6] = target: Thrombin, from Human Plasma, high activity (human, UniProt P00734 328-622)

T3 sequence (P17538 19-263): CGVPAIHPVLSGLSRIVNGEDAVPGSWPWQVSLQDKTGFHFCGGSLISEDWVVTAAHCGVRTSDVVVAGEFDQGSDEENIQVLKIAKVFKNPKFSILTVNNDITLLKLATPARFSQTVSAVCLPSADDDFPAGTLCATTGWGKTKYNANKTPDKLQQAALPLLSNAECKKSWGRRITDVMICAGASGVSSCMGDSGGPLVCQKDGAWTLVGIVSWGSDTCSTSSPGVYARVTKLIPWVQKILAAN
T5 sequence (P00742 41-179 limits assumed, chain 1 of 2): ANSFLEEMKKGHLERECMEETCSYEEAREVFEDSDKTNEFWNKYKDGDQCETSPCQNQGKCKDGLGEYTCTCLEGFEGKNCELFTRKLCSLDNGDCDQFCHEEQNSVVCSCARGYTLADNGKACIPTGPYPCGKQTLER
T5 sequence (P00742 235-488 limits assumed, chain 2 of 2): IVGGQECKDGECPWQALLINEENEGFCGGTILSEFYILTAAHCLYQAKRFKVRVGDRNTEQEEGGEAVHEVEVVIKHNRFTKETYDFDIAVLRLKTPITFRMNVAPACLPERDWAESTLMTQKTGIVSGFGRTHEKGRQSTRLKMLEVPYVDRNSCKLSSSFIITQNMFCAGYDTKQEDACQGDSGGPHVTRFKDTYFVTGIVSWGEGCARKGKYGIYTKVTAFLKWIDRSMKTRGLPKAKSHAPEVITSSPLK

B1: Example 153 (peptide)
peptide: XCTASXPPQCQ
HELM: PEPTIDE1{[O=C([C@H](CCc1ccccc1)N[*:1])[*:2]].C.T.A.S.[CCCCCCCC[C@H](N[*:1])C(=O)[*:2]].P.P.Q.C.Q.[dP].P}$PEPTIDE1,PEPTIDE1,2:R3-10:R3|PEPTIDE1,PEPTIDE1,1:R1-13:R2$$$V2.0
SMILES: CCCCCCCC[C@@H]1NC(=O)[C@H](CO)NC(=O)[C@H](C)NC(=O)[C@H]([C@@H](C)O)NC(=O)[C@@H]2CSSC[C@H](NC(=O)[C@H](CCC(N)=O)NC(=O)[C@@H]3CCCN3C(=O)[C@@H]3CCCN3C1=O)C(=O)N[C@@H](CCC(N)=O)C(=O)N1CCC[C@@H]1C(=O)N1CCC[C@H]1C(=O)N[C@@H](CCc1ccccc1)C(=O)N2
B1 was tested, and the “% inhibition at 100 µM” value [1] was 56%, the “% inhibition at 100 µM” value [2] was 16% and the “% inhibition at 100 µM” value [3] was 84%. The “% inhibition at 100 µM” value [4] was 0%, the “% inhibition at 100 µM” value [5] was 11% and the “% inhibition at 100 µM” value [6] was 16%.

— patent publication US20140213531A1 (POLYPHOR, published 2014)
